Reference: patent US20210363268A1

Target: Biotinylated Human CD39-His
Assay: MSD equilibrium; Fab

SRF399-C
Kd: 53 pM
